In patent US20200299396A1:

Biological target: human TNFR1 on the cellular surface of HeLa, HT1080 and Kym-1 cells (human) (UniProt P19438)
Assay: cell-based or functional assay

human TNFR1 on the cellular surface of HeLa, HT1080 and Kym-1 cells (human), sequence (P19438 30-455 limits assumed): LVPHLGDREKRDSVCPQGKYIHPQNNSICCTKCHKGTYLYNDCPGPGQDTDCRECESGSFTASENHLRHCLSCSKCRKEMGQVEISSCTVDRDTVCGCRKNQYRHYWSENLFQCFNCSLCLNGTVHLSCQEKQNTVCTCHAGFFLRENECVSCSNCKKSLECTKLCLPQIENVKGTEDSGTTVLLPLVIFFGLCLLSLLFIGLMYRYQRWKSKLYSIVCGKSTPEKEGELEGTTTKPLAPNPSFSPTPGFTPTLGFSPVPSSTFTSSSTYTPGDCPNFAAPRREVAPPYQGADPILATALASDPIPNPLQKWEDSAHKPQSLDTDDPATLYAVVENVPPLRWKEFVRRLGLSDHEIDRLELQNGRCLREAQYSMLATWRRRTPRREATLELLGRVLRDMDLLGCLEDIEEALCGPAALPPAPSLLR

Substance: ATROSAB (antibody)
- IC50, Cell death induction [nM] (Kym-1 cells, TNF-induced): 64.4 nM
- IC50, IL-6 [nM] (IL-6 release from HeLa cells, 0.1 nM TNF): 165 nM
- IC50, IL-8 [nM] (IL-8 release from HT1080 cells, 0.1 nM TNF): 84.1 nM
